Measured values: article doi:10.1101/2020.03.30.016881 (bioRxiv, 2020)
No end group written: not given here. TMR = tetramethylrhodamine (5,6-carboxy TMR) linked to N-terminus

Target: E. coli DnaK (Hsp70), unlabelled (E. coli, UniProt P0A6Y8 1-638)
Assay: fluorescence polarisation

E. coli DnaK (Hsp70), unlabelled, sequence (P0A6Y8 whole entry): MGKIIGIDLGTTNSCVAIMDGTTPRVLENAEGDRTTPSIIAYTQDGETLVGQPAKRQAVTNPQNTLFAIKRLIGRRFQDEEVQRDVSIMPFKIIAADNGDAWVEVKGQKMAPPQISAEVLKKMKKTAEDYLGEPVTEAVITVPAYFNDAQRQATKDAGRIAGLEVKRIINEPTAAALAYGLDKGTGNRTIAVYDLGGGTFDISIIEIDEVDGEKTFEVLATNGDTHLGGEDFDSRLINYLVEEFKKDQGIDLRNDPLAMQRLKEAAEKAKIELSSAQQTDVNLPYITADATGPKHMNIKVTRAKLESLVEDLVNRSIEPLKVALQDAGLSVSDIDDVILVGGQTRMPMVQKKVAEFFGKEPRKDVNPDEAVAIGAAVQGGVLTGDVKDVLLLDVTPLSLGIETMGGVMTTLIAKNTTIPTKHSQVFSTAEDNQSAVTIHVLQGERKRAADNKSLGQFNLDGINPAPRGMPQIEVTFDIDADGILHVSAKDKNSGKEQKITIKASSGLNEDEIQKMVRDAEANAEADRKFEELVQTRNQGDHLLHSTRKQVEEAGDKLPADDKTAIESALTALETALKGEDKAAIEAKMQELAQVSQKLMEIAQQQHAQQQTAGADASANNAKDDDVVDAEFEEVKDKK

Binder: {TMR}-KCNTATCATQRLANFLVHSSNNFGAILSSTNVGSNTY (ends and bridges not checked) [TMR-IAPP (human IAPP labelled with tetramethylrhodamine at the N-terminus)]
- Kd: 2.1 ± 0.9 µM
